Data from the supplement of paper PMC9112550, “Optimization of the antimicrobial peptide Bac7 by deep mutational scanning” (BMC Biology, 2022).

Test system: Escherichia coli TOP10
Assay: shrunken log2 fold change of peptide-encoding DNA abundance (4.5 h post-induction vs induction); higher = less antimicrobial activity (less host growth inhibition)
Settings: time post-induction: 4.5 h; library: site-saturation at positions 5, 18, 19, 20
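Also: peptides expressed intracellularly from a pBAD plasmid library in pooled LB shake-flask culture, induced with 0.3% L-arabinose, DNA abundance read by NGS, three biological replicates, DESeq2 with apeglm shrinkage.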

## RRIRTRPPRLPRPRPRPDTWPRP
  shrunken log2 fold change: 0.0221

## RRIRMRPPRLPRPRPRPIALPRP
  shrunken log2 fold change: 0.0271

## RRIRTRPPRLPRPRPRPTYFPRP
  shrunken log2 fold change: -0.313

## RRIRIRPPRLPRPRPRPQEWPRP
  shrunken log2 fold change: -0.0108

## RRIRPRPPRLPRPRPRPGVTPRP
  shrunken log2 fold change: -0.227

## RRIRCRPPRLPRPRPRPLENPRP
  shrunken log2 fold change: -0.102

## RRIRKRPPRLPRPRPRPGIWPRP
  shrunken log2 fold change: 0.362

## RRIRNRPPRLPRPRPRPWIIPRP
  shrunken log2 fold change: -0.429

## RRIRDRPPRLPRPRPRPKKYPRP
  shrunken log2 fold change: -0.239

## RRIRERPPRLPRPRPRPDHYPRP
  shrunken log2 fold change: -0.738

## RRIRRRPPRLPRPRPRPWLPPRP
  shrunken log2 fold change: 0.221

## RRIRKRPPRLPRPRPRPGWFPRP
  shrunken log2 fold change: 0.139

## RRIRQRPPRLPRPRPRPTYIPRP
  shrunken log2 fold change: -0.0622

## RRIRARPPRLPRPRPRPQERPRP
  shrunken log2 fold change: 0.0703

## RRIRKRPPRLPRPRPRPAEVPRP
  shrunken log2 fold change: 0.171

## RRIRSRPPRLPRPRPRPKDYPRP
  shrunken log2 fold change: -0.128

## RRIRGRPPRLPRPRPRPYNWPRP
  shrunken log2 fold change: -0.225

## RRIRYRPPRLPRPRPRPASLPRP
  shrunken log2 fold change: -0.662

## RRIRLRPPRLPRPRPRPKWGPRP
  shrunken log2 fold change: 0.0532

## RRIRRRPPRLPRPRPRPDDYPRP
  shrunken log2 fold change: -0.377

## RRIRWRPPRLPRPRPRPAWIPRP
  shrunken log2 fold change: 0.035

## RRIRSRPPRLPRPRPRPHDYPRP
  shrunken log2 fold change: 0.0635

## RRIRPRPPRLPRPRPRPPAQPRP
  shrunken log2 fold change: 0.57

## RRIRARPPRLPRPRPRPLEHPRP
  shrunken log2 fold change: 0.0565

## RRIRMRPPRLPRPRPRPEHMPRP
  shrunken log2 fold change: 0.147

## RRIRTRPPRLPRPRPRPQRQPRP
  shrunken log2 fold change: 0.455

## RRIRWRPPRLPRPRPRPMELPRP
  shrunken log2 fold change: 1.2

## RRIRCRPPRLPRPRPRPVLSPRP
  shrunken log2 fold change: -0.192

## RRIRQRPPRLPRPRPRPPRGPRP
  shrunken log2 fold change: 2.1

## RRIRRRPPRLPRPRPRPPYFPRP
  shrunken log2 fold change: 0.442

## RRIRWRPPRLPRPRPRPPGEPRP
  shrunken log2 fold change: 0.625

## RRIRHRPPRLPRPRPRPSHIPRP
  shrunken log2 fold change: -0.307

## RRIRGRPPRLPRPRPRPQWRPRP
  shrunken log2 fold change: 0.612

## RRIRGRPPRLPRPRPRPVFWPRP
  shrunken log2 fold change: 0.768

## RRIRPRPPRLPRPRPRPESDPRP
  shrunken log2 fold change: 0.235

## RRIRTRPPRLPRPRPRPSLTPRP
  shrunken log2 fold change: -0.452

## RRIRMRPPRLPRPRPRPMSAPRP
  shrunken log2 fold change: 0.333

## RRIRMRPPRLPRPRPRPMMEPRP
  shrunken log2 fold change: 0.00973

## RRIRHRPPRLPRPRPRPNYSPRP
  shrunken log2 fold change: -0.915

## RRIRARPPRLPRPRPRPWCCPRP
  shrunken log2 fold change: 0.104

## RRIRIRPPRLPRPRPRPCTRPRP
  shrunken log2 fold change: 0.0316

## RRIRKRPPRLPRPRPRPPYHPRP
  shrunken log2 fold change: 0.0273

## RRIRCRPPRLPRPRPRPGYLPRP
  shrunken log2 fold change: -0.561

## RRIRARPPRLPRPRPRPPNYPRP
  shrunken log2 fold change: -0.0985
